Legend:
Assay in all cases: ELISA on coated recombinant spike trimer
[1] = molecular target: T1, Trimeric 229E-CoV spike ectodomain (tri-S) (229E-CoV, UniProt P15423 16-1115)
T1 construct: extracellular domain
T1 sequence: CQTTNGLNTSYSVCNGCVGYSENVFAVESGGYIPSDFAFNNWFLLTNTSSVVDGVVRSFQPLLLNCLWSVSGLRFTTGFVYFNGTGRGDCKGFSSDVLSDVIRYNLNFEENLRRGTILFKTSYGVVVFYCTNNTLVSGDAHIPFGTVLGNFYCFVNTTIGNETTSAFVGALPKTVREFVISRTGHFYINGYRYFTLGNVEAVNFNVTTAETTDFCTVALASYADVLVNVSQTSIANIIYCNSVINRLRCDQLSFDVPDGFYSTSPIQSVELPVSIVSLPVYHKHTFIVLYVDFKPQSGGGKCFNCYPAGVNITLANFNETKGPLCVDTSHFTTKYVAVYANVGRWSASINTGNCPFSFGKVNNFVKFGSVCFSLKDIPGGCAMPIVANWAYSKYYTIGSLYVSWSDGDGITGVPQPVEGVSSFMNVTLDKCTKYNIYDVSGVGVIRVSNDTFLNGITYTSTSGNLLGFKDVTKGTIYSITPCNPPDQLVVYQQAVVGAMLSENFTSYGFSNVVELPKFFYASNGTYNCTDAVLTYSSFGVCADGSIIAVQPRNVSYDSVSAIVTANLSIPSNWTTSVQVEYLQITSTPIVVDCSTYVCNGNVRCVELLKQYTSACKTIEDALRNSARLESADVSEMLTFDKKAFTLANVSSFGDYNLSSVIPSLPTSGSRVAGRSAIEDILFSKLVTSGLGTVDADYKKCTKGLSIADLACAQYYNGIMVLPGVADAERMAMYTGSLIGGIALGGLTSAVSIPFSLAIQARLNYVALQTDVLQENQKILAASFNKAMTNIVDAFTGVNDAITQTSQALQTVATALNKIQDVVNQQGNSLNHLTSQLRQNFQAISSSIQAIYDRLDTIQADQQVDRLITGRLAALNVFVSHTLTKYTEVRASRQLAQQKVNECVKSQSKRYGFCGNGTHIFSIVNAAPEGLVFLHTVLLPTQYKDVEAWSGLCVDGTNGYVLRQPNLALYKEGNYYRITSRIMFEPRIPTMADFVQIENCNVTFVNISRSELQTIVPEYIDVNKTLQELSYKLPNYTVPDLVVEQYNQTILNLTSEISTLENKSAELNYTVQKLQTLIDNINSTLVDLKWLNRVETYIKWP

[2] = molecular target: T2, Trimeric OC43-CoV spike ectodomain (tri-S) (OC43-CoV, UniProt P36334 14-1297)
T2 construct: extracellular domain
T2 sequence: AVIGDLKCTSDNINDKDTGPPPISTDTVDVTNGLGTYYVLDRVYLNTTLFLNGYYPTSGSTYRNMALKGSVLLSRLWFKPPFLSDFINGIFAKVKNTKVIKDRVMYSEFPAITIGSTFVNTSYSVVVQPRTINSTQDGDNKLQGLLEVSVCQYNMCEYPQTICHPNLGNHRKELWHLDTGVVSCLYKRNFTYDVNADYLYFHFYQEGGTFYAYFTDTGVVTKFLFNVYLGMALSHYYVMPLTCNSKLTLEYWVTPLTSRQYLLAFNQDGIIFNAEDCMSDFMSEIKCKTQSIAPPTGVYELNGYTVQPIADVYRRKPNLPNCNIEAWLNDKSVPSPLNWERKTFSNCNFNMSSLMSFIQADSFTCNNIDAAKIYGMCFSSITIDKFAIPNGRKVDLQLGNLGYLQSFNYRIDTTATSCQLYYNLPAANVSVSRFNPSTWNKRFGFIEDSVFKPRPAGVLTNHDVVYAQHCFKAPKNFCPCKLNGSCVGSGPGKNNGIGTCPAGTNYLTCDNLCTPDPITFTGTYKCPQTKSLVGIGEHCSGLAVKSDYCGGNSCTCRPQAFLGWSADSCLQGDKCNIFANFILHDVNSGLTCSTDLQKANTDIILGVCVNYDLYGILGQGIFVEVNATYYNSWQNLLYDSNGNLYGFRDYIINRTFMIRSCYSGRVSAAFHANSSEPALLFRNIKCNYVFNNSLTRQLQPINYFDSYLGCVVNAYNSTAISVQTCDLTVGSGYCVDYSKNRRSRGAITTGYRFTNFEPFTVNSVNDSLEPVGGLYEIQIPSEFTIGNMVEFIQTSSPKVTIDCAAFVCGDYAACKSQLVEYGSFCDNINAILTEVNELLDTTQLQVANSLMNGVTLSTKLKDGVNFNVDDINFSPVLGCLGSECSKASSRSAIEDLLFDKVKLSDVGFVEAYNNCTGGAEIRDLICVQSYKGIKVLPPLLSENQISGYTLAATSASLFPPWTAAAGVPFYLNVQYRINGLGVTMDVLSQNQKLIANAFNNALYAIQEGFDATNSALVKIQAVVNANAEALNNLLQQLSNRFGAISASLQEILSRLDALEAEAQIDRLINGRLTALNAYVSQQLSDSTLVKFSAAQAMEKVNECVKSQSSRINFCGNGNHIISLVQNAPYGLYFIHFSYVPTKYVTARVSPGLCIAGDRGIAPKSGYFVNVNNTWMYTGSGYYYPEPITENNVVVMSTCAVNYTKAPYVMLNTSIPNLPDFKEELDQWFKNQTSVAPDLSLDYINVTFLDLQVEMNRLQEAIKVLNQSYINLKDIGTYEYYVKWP

[3] = molecular target: T3, Trimeric MERS-CoV spike ectodomain (tri-S) (MERS-CoV, UniProt K9N5Q8 18-1296)
T3 construct: extracellular domain
T3 sequence: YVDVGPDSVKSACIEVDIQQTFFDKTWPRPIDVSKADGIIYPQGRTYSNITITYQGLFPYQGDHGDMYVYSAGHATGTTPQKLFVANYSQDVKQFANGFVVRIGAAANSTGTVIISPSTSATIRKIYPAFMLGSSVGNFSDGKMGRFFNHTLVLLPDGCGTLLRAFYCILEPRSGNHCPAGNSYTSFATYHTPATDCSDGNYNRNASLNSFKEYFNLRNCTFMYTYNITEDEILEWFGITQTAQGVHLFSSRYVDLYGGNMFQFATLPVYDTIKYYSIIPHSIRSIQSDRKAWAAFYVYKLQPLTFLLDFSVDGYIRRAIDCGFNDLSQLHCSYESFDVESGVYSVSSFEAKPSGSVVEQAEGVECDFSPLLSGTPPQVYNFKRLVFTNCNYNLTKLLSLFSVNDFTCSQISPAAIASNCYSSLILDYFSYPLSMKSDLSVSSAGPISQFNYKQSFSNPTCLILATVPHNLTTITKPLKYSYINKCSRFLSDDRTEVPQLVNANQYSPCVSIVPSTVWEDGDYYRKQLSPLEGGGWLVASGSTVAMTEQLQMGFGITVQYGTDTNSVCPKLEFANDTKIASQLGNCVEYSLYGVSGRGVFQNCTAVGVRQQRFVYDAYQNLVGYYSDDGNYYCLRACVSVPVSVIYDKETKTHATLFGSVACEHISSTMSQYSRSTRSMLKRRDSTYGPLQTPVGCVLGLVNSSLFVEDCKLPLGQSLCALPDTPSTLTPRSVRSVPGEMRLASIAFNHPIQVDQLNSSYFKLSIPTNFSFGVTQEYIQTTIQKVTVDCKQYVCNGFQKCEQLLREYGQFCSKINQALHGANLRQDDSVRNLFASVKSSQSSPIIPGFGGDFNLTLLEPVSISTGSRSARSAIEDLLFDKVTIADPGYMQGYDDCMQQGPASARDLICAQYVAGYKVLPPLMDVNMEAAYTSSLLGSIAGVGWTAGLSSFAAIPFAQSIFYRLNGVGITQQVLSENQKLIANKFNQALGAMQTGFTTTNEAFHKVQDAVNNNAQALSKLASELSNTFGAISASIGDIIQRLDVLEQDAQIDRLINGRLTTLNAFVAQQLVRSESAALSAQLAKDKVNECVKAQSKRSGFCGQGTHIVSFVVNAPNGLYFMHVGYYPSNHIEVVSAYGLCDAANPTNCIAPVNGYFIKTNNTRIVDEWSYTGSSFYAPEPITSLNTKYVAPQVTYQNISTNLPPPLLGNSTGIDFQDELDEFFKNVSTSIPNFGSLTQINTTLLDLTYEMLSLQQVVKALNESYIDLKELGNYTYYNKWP

[4] = molecular target: T4, Trimeric HKU1-CoV spike ectodomain (tri-S) (HKU1-CoV, UniProt Q5MQD0 13-1300)
T4 construct: extracellular domain
T4 sequence: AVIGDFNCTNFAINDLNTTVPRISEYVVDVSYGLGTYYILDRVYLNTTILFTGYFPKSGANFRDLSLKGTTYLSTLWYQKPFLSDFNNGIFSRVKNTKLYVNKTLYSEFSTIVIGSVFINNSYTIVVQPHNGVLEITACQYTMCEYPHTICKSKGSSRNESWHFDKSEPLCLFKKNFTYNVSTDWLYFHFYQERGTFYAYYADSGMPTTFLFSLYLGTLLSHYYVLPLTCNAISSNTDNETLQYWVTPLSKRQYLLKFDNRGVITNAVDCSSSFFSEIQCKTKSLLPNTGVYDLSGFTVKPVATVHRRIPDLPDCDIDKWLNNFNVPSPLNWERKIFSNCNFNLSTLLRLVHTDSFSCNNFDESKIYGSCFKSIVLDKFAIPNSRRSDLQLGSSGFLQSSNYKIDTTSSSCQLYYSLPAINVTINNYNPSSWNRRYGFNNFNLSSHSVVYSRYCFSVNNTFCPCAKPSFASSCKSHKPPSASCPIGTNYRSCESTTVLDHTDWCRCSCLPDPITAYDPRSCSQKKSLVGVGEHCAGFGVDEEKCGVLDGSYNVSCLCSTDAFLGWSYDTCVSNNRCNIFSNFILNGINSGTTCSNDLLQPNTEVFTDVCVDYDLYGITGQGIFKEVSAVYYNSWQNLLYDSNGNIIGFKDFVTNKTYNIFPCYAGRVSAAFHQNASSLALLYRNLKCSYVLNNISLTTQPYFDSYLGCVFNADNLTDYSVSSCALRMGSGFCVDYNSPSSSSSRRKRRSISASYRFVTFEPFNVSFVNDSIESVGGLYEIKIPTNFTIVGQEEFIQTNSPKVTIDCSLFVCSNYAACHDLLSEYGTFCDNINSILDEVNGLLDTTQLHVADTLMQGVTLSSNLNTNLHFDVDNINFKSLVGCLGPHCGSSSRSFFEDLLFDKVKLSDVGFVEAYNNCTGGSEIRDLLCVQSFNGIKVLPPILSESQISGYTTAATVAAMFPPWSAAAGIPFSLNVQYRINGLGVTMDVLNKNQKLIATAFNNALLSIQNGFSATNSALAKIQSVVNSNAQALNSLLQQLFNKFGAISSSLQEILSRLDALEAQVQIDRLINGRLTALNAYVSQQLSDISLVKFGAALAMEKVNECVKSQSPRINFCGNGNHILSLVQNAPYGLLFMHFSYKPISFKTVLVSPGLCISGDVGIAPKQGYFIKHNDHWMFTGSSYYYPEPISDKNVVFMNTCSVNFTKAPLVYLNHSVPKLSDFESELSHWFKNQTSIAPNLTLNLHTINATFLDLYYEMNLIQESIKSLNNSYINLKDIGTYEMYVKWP

Measured: binding result

B1: Cv2.3132 IgG antibody (antibody, V domains shown)
VH: EVQLVESGGGLVKPGGSLRLSCAASGFTFSDYYMSWIRQAPGKGLEWVSYISSSGSVQYYADSVKGRFTISRDNAKNSLYLQMNSLRAEDTAVYYCARYYYDSSGYWKRLDYWGQGTLVTVSS
VL: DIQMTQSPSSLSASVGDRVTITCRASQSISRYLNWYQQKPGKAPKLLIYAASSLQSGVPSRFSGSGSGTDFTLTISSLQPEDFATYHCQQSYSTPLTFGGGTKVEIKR
notes: also called anti-HR2 antibody Cv2.3132
no binding: [1] | [2] | [3] | [4]
